Among the data in publication PMC3166428 are fraction of loaded clathrin in the eluate (fraction of loaded clathrin) values, retold here.

A value given as a limit tells only on which side of the number the result lay.

In the experiment the target is GST-TRIP8b(1b-2) full. The experiment is described as follows: pull-down.

In turn, “clathrin (from UniProt P11442 1-1675; P08081 1-248) (complex)” gave a fraction of loaded clathrin in the eluate (fraction of loaded clathrin) of more than 0.67.
